Reference: patent US20240409983A1 (published 2024)

Key:
[1] = molecular target: 6162-B78-8_MAM02-008; assay: NGS-count immunoassay, capture antibody titration; average Kd; antibody pair
[2] = molecular target: 6162-H85-2t_6162-F78-2; assay: as above
[3] = molecular target: 401-01R_6162-C57-1; assay: NGS-count immunoassay, capture antibody titration, single-site binding fit; average Kd; antibody pair

B1: Analyte (other)
chain: KLTIESTPFNVAEGKEVLLLVHNLPQHLFGYSWYKGERVDGNRQIIGYVIGTQQATPGPAYSGREIIYPNASLLIQNIIQNDTGFYTLHVIKSDLVNEEATGQFRVYPELPKPSISSNNSKPVEDKDAVAFTCEPETQDATYLWWVNNQSLPVSPRLQLSNGNRTLTLFNVTRNDTASYKCETQNPVSARRSDSVILNVLYGPDAPTISPLNTSYRSGENLNLSCHAASNPPAQYSWFVNGTFQQSTQELFIPNITVNNSGSYTCQAHNSDTGLNRTTVTTITVYAEPPKPFITSNNSNPVEDEDAVALTCEPEIQNTTYLWWVNNQSLPVSPRLQLSNDNRTLTLLSVTRNDVGPYECGIQNELSVDHSDPVILNVLYGPDDPTISPSYTYYRPGVNLSLSCHAASNPPAQYSWLIDGNIQQHTQELFISNITEKNSGLYTCQANNSASGHSRTTVKTITVSAELPKPSISSNNSKPVEDKDAVAFTCEPEAQNTTYLWWVNGQSLPVSPRLQLSNGNRTLTLFNVTRNDARAYVCGIQNSVSANRSDPVTLDVLYGPDTPIISPPDSSYLSGANLNLSCHSASNPSPQYSWRINGIPQQHTQVLFIAKITPNNNGTYACFVSNLATGRNNSIVKSITVSASGTSPGLSA
B1 gave a Kd [1] of 1940 pM, a Kd [2] of 352 pM and a Kd [3] of 906 pM.
